T1: Boi1 SH3 (BOI1_YEAST), P38041
T1 chain: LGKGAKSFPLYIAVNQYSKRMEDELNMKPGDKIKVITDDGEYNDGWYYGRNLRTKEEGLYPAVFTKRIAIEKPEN

T2: Boi2 SH3 (BOI2_YEAST), P39969
T2 chain: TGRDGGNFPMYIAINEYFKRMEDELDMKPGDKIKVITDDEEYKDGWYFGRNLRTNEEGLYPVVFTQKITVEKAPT

T3: Rvs167 SH3 (RV167_YEAST), P39743
T3 chain: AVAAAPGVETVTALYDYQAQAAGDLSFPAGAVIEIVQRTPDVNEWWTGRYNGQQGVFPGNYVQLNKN

T4: Yfr024 SH3 (LSB3_YEAST), P43603
T4 chain: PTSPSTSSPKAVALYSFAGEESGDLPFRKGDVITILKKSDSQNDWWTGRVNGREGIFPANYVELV

T5: Yhr016c SH3 (YSC84_YEAST), P32793
T5 chain: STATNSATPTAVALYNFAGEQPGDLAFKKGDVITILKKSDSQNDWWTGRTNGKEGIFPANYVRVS


Tests used:
Assay in all cases: SPOT array
[1] = biological target: T1, Boi1 SH3 (BOI1_YEAST), P38041
[2] = biological target: T2, Boi2 SH3 (BOI2_YEAST), P39969
[3] = biological target: T3, Rvs167 SH3 (RV167_YEAST), P39743
[4] = biological target: T4, Yfr024 SH3 (LSB3_YEAST), P43603
[5] = biological target: T5, Yhr016c SH3 (YSC84_YEAST), P32793

| normalised SPOT signal, Boehringer light units (BLU); mean over the file's lines of this peptide [1] | normalised SPOT signal, Boehringer light units (BLU); mean over the file's lines of this peptide [2] | normalised SPOT signal, Boehringer light units (BLU); mean over the file's lines of this peptide [3] | normalised SPOT signal, Boehringer light units (BLU); mean over the file's lines of this peptide [4] | normalised SPOT signal, Boehringer light units (BLU); mean over the file's lines of this peptide [5] | Binder |
| --- | --- | --- | --- | --- | --- |
| 61.1 | 51.3 | 47 | 116 | 136 | SNSPSPPEKINNKR [YMR086W 654-667] |
| 120 | 19.3 | 15.4 | 78 | -0 | SSLPLGPIKERSKQ [YMR012W 146-159] |
| 63.4 | 53.9 | 43.7 | 343 | 522 | SPSPLNPYRPHHNM [YNL298W 402-415] |
| 278 | 52.9 | 35.3 | 302 | 150 | SPSPSTPTKSGKMR [YKL185W 424-437] |
| 8950 | 40.5 | 19000 | 35800 | 29500 | SPLPVLPRRISTHT [YMR068W 249-262] |
| 100 | 216 | 565 | 25900 | 1020 | SRPPRPPPKPLHLR [YIL095W 747-760] |
| 78.9 | 90.7 | 335 | 902 | 108 | SSMPNSPKKPVDSL [YDL117W 117-130] |
| 343 | 2.3 | 53.5 | 58.5 | 0 | SQQPTAPMKKTLLK [YMR198W 453-466] |
| 51.7 | -0 | 14.9 | 4850 | 35.2 | SRKPPIPAKQHVKK [YIL156W 547-560] |
| 698 | 64 | 34.4 | 1830 | 151 | SNSPQIPKKKVKDQ [YBL004W 1825-1838] |
| 47 | 36.6 | 57.3 | 624 | 214 | SQSPKRPKKYPKKA [YNL080C 295-308] |
| 468 | 9.1 | 786 | 3160 | 777 | SSFPTIPLRASSGA [YER006W 232-245] |
| 71.5 | 0 | 51.3 | 0 | 143 | SNSPISPHKLIYKN [YDR216W 473-486] |
| 56800 | 361 | 33600 | 35200 | 117000 | SSPPPLPTRRDHIK [YPR171W 184-197] |
| 49.9 | 39.5 | 29.4 | 86 | 205 | SPFPSAPLRKLEIL [YIL034C 92-105] |
| 71.5 | 42.9 | 56.1 | 135 | 429 | SSIPPNPGKTAKPI [YBR198C 108-121] |
| 66.2 | 16.7 | 40.7 | 300 | 61.3 | SSLPSPPAKKSATS [YOL006C 72-85] |
| 25.6 | 75.1 | 20.9 | 85 | 282 | SSNPDDPIRVTTPM [YOL004W 293-306] |
| 72 | 9 | 37.5 | 114 | 330 | SQFPSSPYRTVDPY [YLR183C 3-16] |
| 87.8 | 74.5 | 27 | 647 | 81.8 | SQKPQKPKKSAITK [YJR033C 1337-1350] |
| 33.2 | 71.4 | 37.4 | 272 | 210 | SNVPTTPSRELNGT [YNL309W 346-359] |
| 105 | 45.3 | 25.3 | 22.8 | 243 | SPPPVSPSKMKTTK [YMR255W 106-119] |
